Key:
[1] = molecular target: T1, CsgG Y51A/F56Q/N91R/K94Q/R97W/R192D-del(V105-I107) pore (E. coli, UniProt P0AEA2 16-277); assay: last panel; reader head discrimination from DNA translocation
T1 chain: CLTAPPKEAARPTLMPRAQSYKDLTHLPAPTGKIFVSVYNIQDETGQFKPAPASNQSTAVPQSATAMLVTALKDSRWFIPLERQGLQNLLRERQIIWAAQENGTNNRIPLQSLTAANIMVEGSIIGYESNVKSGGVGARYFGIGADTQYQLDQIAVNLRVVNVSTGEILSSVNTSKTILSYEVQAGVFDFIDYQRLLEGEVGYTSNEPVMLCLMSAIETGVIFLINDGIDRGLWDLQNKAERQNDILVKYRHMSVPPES

[2] = molecular target: T2, CsgG Y51A/N55I/F56Q/N91R/K94Q/R97W-del(V105-I107) pore containing the C terminal strep tag (E. coli, UniProt P0AEA2 16-277); assay: pore 2; in vitro reconstitution; DNA translocation, signal:noise
T2 construct: also called Y51A/N551/F56Q/N91R/K94Q/R97W-del(V105-I107) (sic); not shown: C-terminal Strep tag
T2 chain: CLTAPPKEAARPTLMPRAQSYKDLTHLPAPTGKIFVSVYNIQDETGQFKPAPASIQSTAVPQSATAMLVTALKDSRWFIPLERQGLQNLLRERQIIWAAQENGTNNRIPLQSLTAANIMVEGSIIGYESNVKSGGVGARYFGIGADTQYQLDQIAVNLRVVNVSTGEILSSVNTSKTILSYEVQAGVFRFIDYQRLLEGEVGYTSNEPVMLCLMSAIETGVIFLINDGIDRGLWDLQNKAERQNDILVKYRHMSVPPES

[3] = molecular target: T3, CsgG Y51S/N55A/F56Q/N91R/K94Q/R97W-del(V105-I107) pore (E. coli, UniProt P0AEA2 16-277); assay: pore 7; in vitro reconstitution; DNA translocation, signal:noise
T3 chain: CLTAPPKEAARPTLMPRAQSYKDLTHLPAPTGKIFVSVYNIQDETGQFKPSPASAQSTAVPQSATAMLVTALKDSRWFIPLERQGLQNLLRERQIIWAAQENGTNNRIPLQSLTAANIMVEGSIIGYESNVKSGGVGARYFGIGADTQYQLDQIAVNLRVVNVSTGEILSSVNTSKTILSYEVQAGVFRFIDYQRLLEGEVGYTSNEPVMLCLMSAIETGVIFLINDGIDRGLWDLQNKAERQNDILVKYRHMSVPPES

[4] = molecular target: T4, CsgG Y51A/F56A/N91R/K94Q/R97W-del(V105-I107) pore containing the C terminal strep tag (E. coli, UniProt P0AEA2 16-277); assay: pore 4; in vitro reconstitution; DNA translocation, signal:noise
T4 construct: not shown: C-terminal Strep tag
T4 chain: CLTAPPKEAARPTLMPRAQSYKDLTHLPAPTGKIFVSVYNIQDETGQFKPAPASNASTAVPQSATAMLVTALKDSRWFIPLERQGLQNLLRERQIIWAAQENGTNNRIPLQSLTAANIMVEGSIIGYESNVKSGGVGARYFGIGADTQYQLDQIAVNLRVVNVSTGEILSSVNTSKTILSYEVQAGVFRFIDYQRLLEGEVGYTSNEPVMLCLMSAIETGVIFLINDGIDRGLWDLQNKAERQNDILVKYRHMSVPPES

[5] = molecular target: T5, CsgG Y51S/N55V/F56Q/N91R/K94Q/R97W-del(V105-I107) pore containing the C terminal strep tag (E. coli, UniProt P0AEA2 16-277); assay: pore 8; in vitro reconstitution; DNA translocation, signal:noise
T5 construct: also called Y515/N55V/F56Q/N91R/K94Q/R97W-del(V105-I107) (sic); not shown: C-terminal Strep tag
T5 chain: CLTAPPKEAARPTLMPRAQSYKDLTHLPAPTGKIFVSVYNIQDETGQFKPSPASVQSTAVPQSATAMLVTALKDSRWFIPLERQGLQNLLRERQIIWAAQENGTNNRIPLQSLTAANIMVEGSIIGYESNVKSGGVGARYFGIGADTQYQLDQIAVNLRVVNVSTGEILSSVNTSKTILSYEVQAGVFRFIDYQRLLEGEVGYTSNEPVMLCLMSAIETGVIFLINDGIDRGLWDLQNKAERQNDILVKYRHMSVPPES

[6] = molecular target: T6, CsgG Y51A/F56V/N91R/K94Q/R97W-del(V105-I107) pore (E. coli, UniProt P0AEA2 16-277); assay: pore 6; in vitro reconstitution; DNA translocation, signal:noise
T6 chain: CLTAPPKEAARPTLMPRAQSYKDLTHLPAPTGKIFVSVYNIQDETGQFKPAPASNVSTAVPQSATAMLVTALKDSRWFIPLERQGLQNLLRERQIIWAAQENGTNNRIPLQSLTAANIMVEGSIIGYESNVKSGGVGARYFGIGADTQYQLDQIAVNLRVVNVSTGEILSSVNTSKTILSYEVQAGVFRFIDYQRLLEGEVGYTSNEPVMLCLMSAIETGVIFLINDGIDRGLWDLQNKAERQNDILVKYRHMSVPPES

[7] = molecular target: T7, CsgG Y51T/N55V/F56Q/N91R/K94Q/R97W-del(V105-I107) pore containing the C terminal strep tag (E. coli, UniProt P0AEA2 16-277); assay: pore 9; in vitro reconstitution; DNA translocation, signal:noise
T7 construct: not shown: C-terminal Strep tag
T7 chain: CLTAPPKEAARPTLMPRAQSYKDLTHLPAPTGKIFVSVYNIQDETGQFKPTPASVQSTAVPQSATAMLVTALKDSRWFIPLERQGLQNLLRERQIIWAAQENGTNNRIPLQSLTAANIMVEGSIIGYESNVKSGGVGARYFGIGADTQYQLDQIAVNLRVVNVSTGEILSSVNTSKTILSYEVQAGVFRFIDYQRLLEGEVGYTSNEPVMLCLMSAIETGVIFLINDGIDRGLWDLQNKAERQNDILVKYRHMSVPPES

[8] = molecular target: T8, CsgG Y51A/F56Q/N91R/K94Q/R97W-del(V105-I107) pore containing the C terminal strep tag (E. coli, UniProt P0AEA2 16-277); assay: pore 1; in vitro reconstitution; DNA translocation, signal:noise
T8 construct: Oligomeric CsgG pore; not shown: C-terminal Strep tag
T8 chain: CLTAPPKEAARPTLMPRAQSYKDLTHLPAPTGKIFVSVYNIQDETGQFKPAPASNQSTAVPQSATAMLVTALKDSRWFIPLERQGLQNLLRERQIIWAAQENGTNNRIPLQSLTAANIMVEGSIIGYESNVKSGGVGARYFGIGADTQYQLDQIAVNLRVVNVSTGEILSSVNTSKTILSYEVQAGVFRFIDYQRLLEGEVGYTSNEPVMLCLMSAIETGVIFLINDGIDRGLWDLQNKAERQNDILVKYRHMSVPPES

Measured: binding result

GTMTFQFRNPNFGGNPSNGAFLLNSAQAQNSYKDPSYNDDFGIET [CsgF-N17S-(1-45) peptide]
binds: [1]

GTMTFQFRNPNFGGNPNNGAFLLNSAQAQNSYKDP (also called CsgF (1-35) peptide) [CsgF-(1-35) synthetic peptide]
not listed: [1]
binds: all other assays above

Source: US20220056517A1 (OXFORD NANOPORE TECHNOLOGIES, published 2022)
